# Results taken from the DeepSol protein solubility set.
# Assay: soluble on expression in E. coli; label from the status in PepcDB or PDB records
row,Sequence,soluble on expression in E. coli
1,MKRTPLFEKHVELGAKMVDFAGWEMPLYYTSIFEEVMAVRKSVGMFDVSHMGEFLVKGPEAVSFIDFLITNDFSSLPDGKAIYSVMCNENGGIIDDLVVYKVSPDEALMVVNAANIEKDFNWIKSHSKNFDVEVSNISDTTALIAFQGPKAQETLQELVEDGLEEIAYYSFRKSIVAGVETLVSRTGYTGEDGFELMLEAKNAPKVWDALMNLLRKIDGRPAGLGARDVCRLEATYLLYGQDMDENTNPFEVGLSWVVKLNKDFVGKEALLKAKEKVERKLVALELSGKRIARKGYEVLKNGERVGEITSGNFSPTLGKSIALALVSKSVKIGDQLGVVFPGGKLVEALVVKKPFYRGSVRREV,soluble
2,MKSLQALFGGTFDPVHYGHLKPVETLANLIGLSRVIIMPNNVPPHRPQPEASSAQRKYMLELAIADKPLFTLDERELQRNAPSYTAQTLKAWREEQGPEAPLAFIIGQDSLLNFPTWHDYDTILDNTHLIVCRRPGYPLEMTQAQHQQWLEQHLTHTPDDLHQLPAGKIYLAETPWLNISATLIRERLEKGESCDDLLPENVLNYINQQGLYR,not soluble
3,MSGKVVRPSAALLEVFKSWQGGAIRVQRNEKLKTRLDVILDRPEKNNCLSGEMMKQFGEHTELFSDDQNAIIVVSGVGKSFCSGADLGLIKDISDQKLGVQMFEYMSSILSLLHSSPAISIAKIHGHALGGATEICSSTDIRIAHSGSKIAFFQSKMGIVPSWGGAEYMEGIMGRGRALAAMGRANVMSAEEAKDQGYVDYVYKSEDEAENFINQVASAGLKVTRAQKAMLNAVKIGKTEQKQVLEAVWNGETHRNALQKQLEAVVKK,not soluble
4,MGSDKIHHHHHHLAKAELTQIPVSQMVIGLTVKLPLSWTNHPFFRSKVKLEQQVQIEMIKGLDVSFVYVIEGHDLLPHVSEPVEIEQPEEVVEQEIDYRPLAKKSMRISQQRFVKSVNDSRTVFGKIVSDPEGAYREAATLVEDLVDHLYESETPQLTIVGSGEIDVSVTQHGISVAVLSMMIAHSLVLSKKDVRDIALGSLFHDIGKLKVPDAIRRKKRGDLSDHEINFLKMHPNFGYDMLNRTGLFPEAMLDIVLHHHEFIDGSGFPNQLTEAKILLTTQVVSLANDYETLLNLHRTPQIALGILFKTHSGKHADNLIAVLVKILGIYPPGTIVRLTDDSIAKVMMTTADVKQPHVWSCNLSGGEPSFRFLINEDVQVQEVMKLDELTDGAVKTLQANNPISFYFNNFDH,not soluble
5,ITEEEAKLFTEQLGDIIQFAEQLNELDTEGVEPTSHVLDMKNVLREDKPEKGLPVEDVLKNAPDHEDGQIR,not soluble
6,MGSDKIHHHHHHMSGKNKSVADIMAVCQEMFEDLNFNYARKWKAAKEGRKVIGFLPVYSPIEMIHAAGCLPLGIFGGGDQMEVIHGDAYYQSYICRIPRSTIELGVTNRLDFVDGMIFPFVCDVIRNLSGIWKLMFPNVWSKFFDTPQNYDKSIGGTYYIQELQELKEGLETLTGRKISDADIQRSIGLYNENRRLIREVYAFRAKQPWLAPTSEVYVLMRAGLMMDVEEHNQMLKDYMAAAAKEDRPKRDNVRISIYGSFCEQPPLNLIKSIEMAGCYVVDDDYSLNNRFLMVDVPTTGNPLEALAITYLENSVETSCKYVPDGKVKGQFHVDAVKACGAEGVIYATPSFCDPALLDRPMVCNKLSEAGIPYIAFKYAENSGQMQPIREQAGTFADSIKLWS,not soluble
7,MGSDKIHHHHHHMAPRIKTRDRIAQASLELFNAQGERSVTTNHIATHLGISPGNLYYHYPNKQAIIAELFAEYESHVESFLRLPEGRGLTVDDKTFYLEALLAAMWRYRFLHRDLEHLLESDPELAARYRAFAQRCLVNAKAIYRGFTEAGILRMNETQLEALTLNAWIILTSWVRFLCTTLDLDGDLSEAQLRRGIYQVLALESGHIEAQAQDAVDGISERLYVPL,not soluble
8,MSLKPFSEPIIRCAKARAYRIPTDRPEADGTFAWTDTTIVVATLDAGDAHGIGYTYTDASAAALIERMLAPALDGRSAFDIGGALAALRRAVRNVGRGGVAATAISALDAALWDAKAKLLGLPLAKLLGGVRDAVPVYGSGGFTSYDEHALRAQLEGWRAQGLHACKIKVGSAPRDDPARVRIARDALGGGVALFVDANGAFAPHDALAFAQRIAECDVRWFEEPVSADDIDGLRFVRERLAAGVDVAAGEYGYTLDDFRVLLASGALDVLQADATRCGGVSGFLEAATLADAFHRDLSAHCAPALHRHVCCAAPRVRHVEWFHDHARIERMLFDGAPTPRDGAIAPDMSRPGLGIELKAQDAARFAVEGHHHHHH,not soluble
9,MSQYSENIIIGAGAAGLFCAAQLAKLGKSVTVFDNGKKIGRKILMSGGGFCNFTNLEVTPAHYLSQNPHFVKSALARYTNWDFISLVAEQGITYHEKELGQLFCDEGAEQIVEMLKSECDKYGAKILLRSEVSQVERIQNDEKVRFVLQVNSTQWQCKNLIVATGGLSMPGLGATPFGYQIAEQFGIPVIPPRASLVPFTYRETDKFLTALSGISLPVTITALCGKSFYNQLLFTHRGISGPAVLQISNYWQPTESVEIDLLPNHNVEEEINQAKQSSPKQMLKTILVRLLPKKLVELWIEQGIVQDEVIANISKVRVKNLVDFIHHWEFTPNGTEGYRTAEVTMGGVDTKVISSKTMESNQVSGLYFIGEVLDVTGWLGGYNFQWAWSSAYACALSISRQ,soluble
10,MISSLAVEFGALRLACTSKIVMATRNMPARGTKPLPRHLWDMSDLEEKTSGQYTHKPLRINRLGGRDPETGRKVNQHIGGGVKFDYFMIDFHRRGPADQGATYDERILEIRRDPNRTCHIALCAGINGKRWILATENMKAGDVISTSGHLSENPVIGVEGNAYPIGSLAAGTVINSIERYPTMDSETFVKAAGTSATIVRHQGDFTVVKLPHKHEFSLHRTCMATVGRLSHADIDGKIFGSAQMHRRFGYKMSSGLFHKKDGYFGRKVRALPPVRILDTPPQAPPPNQRFTLSKKDLSGLHGHAKVHNLIPAGYSTRDYPE,not soluble
11,MGGSHHHHHHGMASSSNVPADMINLRLILVSGKTKEFLFSPNDSASDIAKHVYDNWPMDWEEEQVSSPNILRLIYQGRFLHGNVTLGALKLPFGKTTVMHLVARETLPEPNSQGQRNREKTGESNCCVIL,not soluble
12,MSPMNRQRKNKSNVLNEKDERPGCIIKEKSSVRSMAKTQPTSGRTISLSEINKPIALSKKNTEIKAAVEIQNRLTKKMAKNSERRKKMAHGPEMTAQNRTQERIDFVEFLDRHYQVMQAGVSTVKVHKMHYTKEEFENVIYEAQTIFSSEKALVDIDPPCVVVGNLHGQFNDLINMFILLGRPPETVYVFTECVTSIPKCGEEIWALFQRCFNNLPISALIATKILCMHGGLSPALTCLDELRNHPKPIRNPFRGIVNDMLWADPDPSVFEWKTSSRGSGFTFGTNVIDDVCKRLGVELIIRAHQMCFDGYWVLSGRKLITIFSAPMYCNFYKNTGCVLKVDETLGIQTVAFVPESENIEKIIEEMNRVWDISIDCIE,not soluble
13,GAEDHANHEHDDEMSAAAAHGVESLIYRRDTPFHPVRFNDWLDDWDGAIVRAKGFAWVASRPETVLGVSQAGPSVQAGPIGEWGNDDPSTRLVFIGQEMDGDALIGELDDCLATDKERTETFASDPFPREG,not soluble
14,SLRSIMTPRGEISWVDAEQSEDEIRRQLLSSPHSLFPVCRGELDEIIGIVRAKEMLVALESGENVAALASASPAIVVPETLDPINLLGVLRRARGSFVIVTNEFGVVQGLVTPLDVLEAIAGEFPDADETPEIVIDGDGWLIKGSTDLHALQQALGLDPLINDDEDIATVAGLVISANGHIPRIGDVVSLPPLHFTVVEANDYRV,soluble
15,GLNFPTYDGKDRVVSLSEKNFKQVLKKYDLLCLYYHEPVSSDKVTQKQFQLKEIVLELVAQVLEHKAIGFVMVDAKKEAKLAKKLGFDEEGSLYILKGDRTIEFDGEFAADVLVEFLLDLIEDPVEIISSKLEVQAFERIEDYIKLIGFFKSEDSEYYKAFEEAAEHFQPYIKFFATFDKGVAKKLSLKMNEVDFYEPFMDEPIAIPNKPYTEEELVEFVKEHQRPTLRRLRPEEMFETWEDDLNGIHIVAFAEKSDPDGYEFLEILKQVARDNTDNPDLSILWIDPDDFPLLVAYWEKTFKIDLFRPQIGVVNVTDADSVWMEIPDDDDLPTAEELEDWIEDVLSGKINTEDDDEDDDDDDNSDEEDNDDSDDDDDE,soluble
16,MGVCRICGLSLDEISDSIGVCLECLRKGNLDFARKAHRKWREEIGLPVERWAREEGKVCFLCVNSCVIPEGKTGFCGVLRNEGGRLSYITGSHRKAFLHWYYDPHPTNCVALPICPEREHRGFYNFAVFFAGCNLDCLFCQNIDHKYMVKDGRISEGKIVDIDELVEIAMKPRVSCVCFFGGDPTPWTVFALEFAVKLGNRRRICWETNGLAHPRIMERMARVSLESGGIVKIDWKAFSPEVYEALTGVDGKSAVRRIMENVQLVSSMGKGREIPLLVISVLVIPHYIDEKEIEGIAGFISSVDPEIPLVLLAFAPQHLMSDLPTTRKHHMERVKQKALEKGLKRVFVENVWLLS,not soluble
17,METVTLSEARVYVGTYNKYNSGSLFGKWLDLSDYSDKDEFMEACRELHKDDQDPEFMFQDYENIPEALISESWLSDKFFELRDAIEKLSETQQEAFFVWCDHHNNDISEEDADDLISSFEDEYQGEYKDEEDYAYEIVEECYDLPEFAKTYFDYSAFARDLFMTDYWMDNGFVFRCA,not soluble
18,MSLGDSRGRVFSWSVSDQPGRSAADHWVKDEGGDSCSGCSVRFSLTERRHHCRNCGQLFCQKCSRFQSEIKRLKISSPVRVCQNCYYSLQHERGAEDGPRNCEGHHHHHH,soluble
19,AHHHHHHGSKIKRKIYWTKEFDSSHLLDLPYESKCKRIHGHTYRIEIEIYGDINEQGMIFDFNHLSDLIKELDHKIIVSKNWIEEREEFIVVKKNQKTLEIPRSEVVVIDKPNVTAEYLAEWFVEKILEKADKNIYEIKVRVWEDPRSYAEVTLELQGS,soluble
20,MLELAILGLLIESPMHGYELRKRLTGLLGAFRAFSYGSLYPALRRMQADGLIAENAAPAGTPVRRARRVYQLTDKGRRRFGELVADTGPHNYTDDGFGVHLAFFNRTPAEARMRILEGRRRQVEERREGLREAVARASSSFDRYTRQLHQLGLESSEREVKWLNELIAAERAAPNPAEQT,not soluble
21,MSLKKLTVAALAVTTLLSGSAFAHEAGEFFMRAGSATVRPTEGAGGTLGSLGGFSVTNNTQLGLTFTYMATDNIGVELLAATPFRHKIGTRATGDIATVHHLPPTLMAQWYFGDASSKFRPYVGAGINYTTFFDNGFNDHGKEAGLSDLSLKDSWGAAGQVGVDYLINRDWLVNMSVWYMDIDTTANYKLGGAQQHDSVRLDPWVFMFSAGYRFEGGSHHHHHH,soluble
22,MGSDKIHHHHHHVPLLFGTAGVPLSAKERSTEAGVKRVRELQLDAMEVEFVQGVRMGEEKAQKIAQIAVEEKVALSCHGPYWINFNSQEPEKVAASRERLLHSARISKILGVKSVVFHPAFYHQDDPQVVLVRTAGELMKVREILDAEGNDVILRPETTGKPSQLGTLQEVLTLAQAVPGVLPCIDISHLHARSNGRINTYDEFCQVLEAAAESLGDRWVKHVHFHVSGIDYGVKGEKKHLILKESDLRYPELMKAFHTFGVEGLVICESPNLEEDALLLQTTYRTMA,not soluble
23,GHMSYSITLRVYQTNRDRGYFSIVEKTVWHFANGGTWSEANGAHTLTMGGSGTSGMLRFMSTKGERITVAVGVHNYKRWCDVVTGLKPDETALVINPQYYNNGGRDYVREKQLAEYSVTSAIGTKVEVVYTVAEGNNLEANVIFS,soluble
24,MEDKRLIREKILRNLNSIDKVEHRERSIKLAEKLFLLPEWENAKVVGITLARHPEIETEAIILQAKKEGKTILIPKTYYPSRKMEFKKMDSIHPLIKSKFGILEPNELAETVDKKVIDLLIVPGVAFNKDHYRIGFGGGFYDRFLTDFQGHTVSLYLYEQQIEFTPETHDEPVSILIGGLEHHHHHH,not soluble
